This is an account of results in patent publication US20100209400A1, “TAK1-Mediated Regulation of Osteogenesis” (priority 2003, published 2010).

Test [1] concerns C3H10T½-BMP2 cells. As to the kind of experiment: FACS for apoptosis and cell cycle progression. Type of test: cell-based, murine. The note with it: CDDP 25 μM, TAK1 variants stably co-expressed; for apoptosis (subG0-G1 peak): etoposide 10 μM. How it is done: Exponentially growing cells were harvested 48 hours post-seeding or at different stages at and after confluence by trypsinization and fixation with 80% methanol. Cellular DNA content was determined by staining cells with RNAseS/propidium iodide, and measuring fluorescence in a Becton Dickinson FACScan. For each cell population, 10,000 cells were analyzed, and the proportions in G0/G1, G2/M and S-phases were estimated by using Modfit cell cycle analysis software. Information on cell size (e.g. due to differentiation) and complexity could be obtained from forward and side scatter data following evaluation of relevant cell populations.
To determine whether TAK1-mediated effects in the assay systems above resulted from apoptosis, C3H10T½-BMP2 cells co-expressing TAK1 variants were assayed by FACS for apoptosis and cell cycle progression.

In another test the test system is SMAD proteins. Put plainly: Co-immunoprecipitation of TAK1 variants with SMADs from HEK293T cells. It is filed as binding. As to conditions: SMAD7, R-SMADs 1-3, 5, SMAD4. As for the experimental part:
(§1) Co-immunoprecipitation were conducted as described (Verschueren K et al, J. Biol. Chem, 274: 20489-20498, 1999). Human embryonic kidney (HEK) 293T cells were plated at 3×10^6 cells/petri dish (55 square centimeters (cm^2)) one day prior to transfection. For transient transfections, 1 μg of Flag-tagged expression plasmid and 2 μg of Myc- or HA-tagged expression plasmids were utilized. DNA content was normalized with empty vector. Transfections were performed with FuGENE6 (Roche, Mannheim). Roughly 36 hours post-transfection cells were dislodged from dishes and harvested by centrifugation. Pellets were shock frozen in liquid nitrogen. […] reactions were performed in lysis buffer. Cell extracts and immunoprecipitates were analyzed by SDS-PAGE and Western blot analysis using the appropriate antibodies.
Toward this end, co-immunoprecipitation with various combinations of wild-type TAK1 (TAK1wt) and R-SMADs, either in a latent form or post-activation by constitutively active BMP type I receptor (ALK6ca, BMPR-IB) or activin type I receptor ALK4ca (ActR-IB), I-SMADs and SMAD4, were conducted. […] TAK1 interaction with R-SMADs was typically stronger in the absence of constitutively active receptors (the exception being SMAD3), which may reflect a reduced affinity for activated, i.e. phosphorylated R-SMADs by TAK1, except with SMAD3.
SMAD proteins only bind TAK1 with an intact or a constitutively active kinase domain. Different TAK1 variants such as TAK1wt, TAK1ca, TAK1dn and two deletions, TAKDN (lacking amino acids 1-300; FIG. 1a) and TAKDC (lacking 301-606; FIG. 1a), respectively, were tested for their ability to bind to R-SMADs (using SMAD1 as a representative) or I-SMAD6 and I-SMAD7.

The next test deals with T1, SMAD1:SMAD4 interaction (Homo sapiens, UniProt Q13485+Q15797).
T1 construct: expressed in transfected cells; host or cells: HEK293T
Put plainly: Co-immunoprecipitation of SMAD1:SMAD4 hetero-oligomerization in HEK293T cells. It is filed as cell-based. The note with it: receptor-mediated hetero-oligomerization. As for the experimental part: as §1
R-SMAD hetero-oligomerization with SMAD4 and subsequent accumulation in the nucleus is essential for biological activity.

Test [2] concerns SMAD1-mediated transcription. Put plainly: SMAD1-SBE CAT reporter assay. It is filed as cell-based, human. As to conditions: dose-dependent, following activation by constitutively active receptors. How it is done: Reporter assays using the GALA DNA binding domain fused to various forms of SMAD proteins were performed as described (Meersseman, G at al, Mech. Dev, 61: 127-140, 1997). Briefly, 420 nanograms (ng) DNA was transfected/well (24 well-plate seeded with 1×10^5 HEK 293T cells) one day prior to transfection. The DNA mix included a plasmid expressing β-galactosidase under the control of the RSV promoter, for normalization purposes and a reporter plasmid encoding firefly luciferase under the control of 5 GAL4 binding sites upstream of a minimal TATA box (pG5 luc, Promega, Mannheim) and combinations of effector plasmids. The DNA content was normalized with empty vector.
Cells were harvested and lysed. β-Galactosidase (β-gal) activity was measured via the luminescent β-galactosidase kit II (Clontech, Palo Alto, Calif.), and luciferase activity via the luciferase assay system (Promega, Mannheim). All results are expressed as luciferase activity normalized with β-gal values (“relative luciferase activities”). Reporter assays with the SMAD1 DNA binding element SBE-9 (GCCG×9) (Kusanagi K et al, Mol Biol Cell 11: 555-565, 2000) cloned into pCAT5 vector (Boshart M et al, Gene 110: 129-130, 1992) were performed similarly except that cells were lysed in CAT lysis buffer. CAT enzyme was measured via CAT ELISA assay and β-gal via chemiluminescent β-gal reporter gene assay (Roche, Mannheim). […]
(In general: Reporter assays use an easily measured gene product as a stand-in for the process of interest.)

Test [3] deals with C3H10T½-BMP2 cells. Put plainly: Histological analysis and alkaline phosphatase staining of C3H10T½-BMP2 cells. Type of test: cell-based, murine. As for the experimental part:
Murine C3H10T½ progenitor cells were cultured in high-glucose DMEM containing 10% fetal calf serum, as described (Ahrens Met al, DNA Cell Biol, 12: 871-880, 1993). Cells were stably transfected with expression plasmids encoding wt TAK1, dominant-negative (dn) or constitutively active (ca) TAK1 in pMT7T3-f1 using DOSPER™ according to the manufacturer's protocol (Roche, Mannheim) and a selection plasmid conferring puromycin resistance (pBSpacDp: parental C3H10T½ cells) or G418-resistance (pAG60: BMP2-expressing C3H10T½ cells). Individual clones were picked, propagated, and tested for recombinant expression of TAK1-variants by RT-PCR using a vector-specific and a gene-specific primer. Control cell lines (empty to expression vector) were established at the same time. Cells were plated at a density of 5,000 cells/cm^2. After reaching confluence (arbitrarily termed day 0) ascorbic acid (50 microgram/milliliter (μg/ml)) and b-glycerophosphate (10 millimolar (mM)) were added.
(§2) Proteoglycan-secreting chondrocytes were identified by staining with Alcian Blue at pH 2.5 (Alcian Blue 8GS, Roth, Karlsruhe).
Osteoblast formation was evaluated as a measure of TAK1 influence on osteo-/chondrogenic differentiation potential. C3H10T½-BMP2 cells co-expressing TAK1 and its molecular variants were assessed histologically for alkaline phosphatase (ALP) activity (FIG. 8C), which is indicative of osteoblast differentiation.

Test [4] has as its system C3H10T½-BMP2 cells. As to the kind of experiment: Semi-quantitative RT-PCR of osteo-/chondrogenic marker genes and Alcian Blue staining. It is filed as cell-based, murine. The note with it: co-expression in C3H10T½-BMP2 cells. How it is done: as §2
Total cellular RNA was prepared by TriReagent LS according to the manufacturer's protocol (Molecular Research Center Inc., Ohio, Miss.). Five μg of total RNA was reverse transcribed with oligo-dT primers and cDNA aliquots were subjected to PCR. RT-PCR was normalized by the transcriptional levels of HPRT. The primer pairs and PCR conditions used to evaluate osteo-/chondrogenic differentiation, for collagen Ia1, collagen IIa1, osteocalcin, and the PTH/PTHrP-receptor have been described (Hoffmann A et al, J. Cell Sci 115: 769-781, 2002).

The subject of test [5] is p38 MAPK and JNK phosphorylation. As to the kind of experiment: p38 MAPK and JNK phosphorylation in transfected cells. Type of test: cell-based. As to conditions: data not shown. The source says:
Among nine tissues examined, both TAK1 long and short forms were expressed in every tissue assessed apart from kidney (FIG. 1B). TAK1 tissue-specific expression levels varied, with minimal lung expression detected. Both TAK1 splice variants were comparably expressed in the mesenchymal progenitor line, C3H10T½ (see FIG. 8A). TAK1 mutants generated from the long transcript form included dominant-negative (TAK1dn) and constitutively active (TAK1ca) variants as compared to wild-type control (TAK1wt).

T1 sequence (Q15797 whole entry): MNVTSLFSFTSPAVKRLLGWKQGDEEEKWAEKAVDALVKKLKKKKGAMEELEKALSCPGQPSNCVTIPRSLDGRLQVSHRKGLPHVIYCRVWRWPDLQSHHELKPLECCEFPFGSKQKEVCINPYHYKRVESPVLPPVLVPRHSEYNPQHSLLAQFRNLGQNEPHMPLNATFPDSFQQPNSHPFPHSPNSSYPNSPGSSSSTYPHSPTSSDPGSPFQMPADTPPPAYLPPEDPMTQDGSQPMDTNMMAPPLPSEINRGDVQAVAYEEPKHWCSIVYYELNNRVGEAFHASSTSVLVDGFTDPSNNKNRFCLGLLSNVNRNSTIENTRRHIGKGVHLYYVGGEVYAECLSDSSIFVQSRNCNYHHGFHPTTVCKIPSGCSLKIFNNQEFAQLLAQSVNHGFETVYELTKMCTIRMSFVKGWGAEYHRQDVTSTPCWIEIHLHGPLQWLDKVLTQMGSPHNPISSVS
T1 sequence (Q13485 whole entry): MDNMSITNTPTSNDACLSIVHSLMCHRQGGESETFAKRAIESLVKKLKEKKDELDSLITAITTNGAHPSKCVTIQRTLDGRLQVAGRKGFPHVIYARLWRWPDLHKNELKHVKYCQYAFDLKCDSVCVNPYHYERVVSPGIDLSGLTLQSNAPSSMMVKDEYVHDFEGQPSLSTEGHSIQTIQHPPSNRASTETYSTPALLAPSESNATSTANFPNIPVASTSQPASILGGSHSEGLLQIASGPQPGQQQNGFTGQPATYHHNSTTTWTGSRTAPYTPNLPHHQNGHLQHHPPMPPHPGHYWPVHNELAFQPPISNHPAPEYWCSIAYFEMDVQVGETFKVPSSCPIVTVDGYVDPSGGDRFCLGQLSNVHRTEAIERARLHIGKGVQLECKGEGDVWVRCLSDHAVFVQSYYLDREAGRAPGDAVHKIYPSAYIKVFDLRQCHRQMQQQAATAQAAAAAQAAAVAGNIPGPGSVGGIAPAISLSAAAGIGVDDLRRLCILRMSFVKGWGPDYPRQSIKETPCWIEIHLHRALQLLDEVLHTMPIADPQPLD

For the molecule `COc1cc([C@@H]2c3cc4c(cc3[C@@H](O[C@@H]3O[C@@H]5CO[C@@H](C)O[C@H]5[C@H](O)[C@H]3O)[C@H]3COC(=O)[C@H]23)OCO4)cc(OC)c1O` [etoposide], the “apoptosis (subG0-G1 peak)” value in the test with C3H10T½-BMP2 cells [1] was “induced a significant subG0-G1 peak”.
Consider `[NH2][Pt]([NH2])([Cl])[Cl]` [CDDP, cisplatin], for which, in the test with C3H10T½-BMP2 cells [1], the cell cycle effect result is given as “arrested maturation in the G2-M phase” and the “apoptosis (subG0-G1 peak)” value is “did not cause measurable apoptosis”.

B1: TAKDN: TAK1 Δ1-300 N-terminal deletion mutant (protein)
chain: PCQYSDEGQSNSATSTGSFMDIASTNTSNKSDTNMEQVPATNDTIKRLESKLLKNQAKQQSESGRLSLGASRGSSVESLPPTSEGKRMSADMSEIEARIVATAAYSKPKRGHRKTASFGNILDVPEIVISGNGQPRRRSIQDLTVTGTEPGQVSSRSSSPSVRMITTSGPTSEKPARSHPWTPDDSTDTNGSDNSIPMAYLTLDHQLQPLAPCPNSKESMAVFEQHCKMAQEYMKVQTEIALLLQRKQELVAELDQDEKDQQNTSRLVQEHKKLLDENKSLSTYYQQCKKQLEVIRSQQQKRQGTS
modifications: left off: small tags and cut ends
notes: TAK1 Δ1-300 N-terminal deletion mutant
B1: in the test with SMAD proteins, the “binding of TAK1 variant to SMAD proteins (co-immunoprecipitation)” value is given as “unable to bind significantly”.

B2: TAK1wt: wild-type murine TAK1 (long splice form) cloned from kidney, expressed from plasmid in transfected cells (protein)
chain: MSTASAASSSSSSSASEMIEAPSQVLNFEEIDYKEIEVEEVVGRGAFGVVCKAKWRAKDVAIKQIESESERKAFIVELRQLSRVNHPNIVKLYGACLNPVCLVMEYAEGGSLYNVLHGAEPLPYYTAAHAMSWCLQCSQGVAYLHSMQPKALIHRDLKPPNLLLVAGGTVLKICDFGTACDIQTHMTNNKGSAAWMAPEVFEGSNYSEKCDVFSWGIILWEVITRRKPFDEIGGPAFRIMWAVHNGTRPPLIKNLPKPIESLMTRCWSKDPSQRPSMEEIVKIMTHLMRYFPGADEPLQYPCQYSDEGQSNSATSTGSFMDIASTNTSNKSDTNMEQVPATNDTIKRLESKLLKNQAKQQSESGRLSLGASRGSSVESLPPTSEGKRMSADMSEIEARIVATAAYSKPKRGHRKTASFGNILDVPEIVISGNGQPRRRSIQDLTVTGTEPGQVSSRSSSPSVRMITTSGPTSEKPARSHPWTPDDSTDTNGSDNSIPMAYLTLDHQLQPLAPCPNSKESMAVFEQHCKMAQEYMKVQTEIALLLQRKQELVAELDQDEKDQQNTSRLVQEHKKLLDENKSLSTYYQQCKKQLEVIRSQQQKRQGTS
modifications: left off: small tags and cut ends
notes: wild-type murine TAK1 (long splice form) cloned from kidney, expressed from plasmid in transfected cells
Turning to B2, the “binding of TAK1 variant to SMAD proteins (co-immunoprecipitation)” value in the test with SMAD proteins is listed as “able to interact”. In addition, in the test with SMAD1:SMAD4 interaction, the “SMAD1:SMAD4 interaction” value was “enhanced”. Besides, the “maximum reduction of SMAD1 transcription (CAT reporter)” value in test [2] worked out at 30%. In addition, the “growth phenotype of C3H10T½-BMP2 cells expressing the TAK1 variant” value in the test on C3H10T½-BMP2 cells [3] (after confluence) is recorded as “C3H10T½ wild-type phenotype”. In the test on C3H10T½-BMP2 cells [3] (compared to C3H10T½-BMP2 cells, 10 days post-confluence), the “osteoblast-like cell formation / ALP activity” value is listed as “interfered with osteoblast-like cell formation”. Also, the “expression of osteogenic marker genes (osteocalcin, PTH/PTHrP receptor)” value with C3H10T½-BMP2 cells [4] was “down-regulated expression of osteogenic genes”. In addition, the “apoptosis (subG0-G1 peak)” value in the test on C3H10T½-BMP2 cells [1] is listed as “did not induce apoptosis”. Moreover, in test [5], the “biological activity as evidenced by p38 MAPK and JNK phosphorylation” value is “biologically active”.
